The values that follow come from patent publication US20180291110A1 (Hoffmann-La Roche, published 2018).

The target in the assay is T1, human transferrin receptor (recombinant, for surface plasmon resonance) (human, UniProt P02786 89-760).
T1 construct: also called huTfR; human transferrin receptor-biotinylated
The assay can be described thus: SPR 25C.

T1 sequence (P02786 89-760 limits assumed): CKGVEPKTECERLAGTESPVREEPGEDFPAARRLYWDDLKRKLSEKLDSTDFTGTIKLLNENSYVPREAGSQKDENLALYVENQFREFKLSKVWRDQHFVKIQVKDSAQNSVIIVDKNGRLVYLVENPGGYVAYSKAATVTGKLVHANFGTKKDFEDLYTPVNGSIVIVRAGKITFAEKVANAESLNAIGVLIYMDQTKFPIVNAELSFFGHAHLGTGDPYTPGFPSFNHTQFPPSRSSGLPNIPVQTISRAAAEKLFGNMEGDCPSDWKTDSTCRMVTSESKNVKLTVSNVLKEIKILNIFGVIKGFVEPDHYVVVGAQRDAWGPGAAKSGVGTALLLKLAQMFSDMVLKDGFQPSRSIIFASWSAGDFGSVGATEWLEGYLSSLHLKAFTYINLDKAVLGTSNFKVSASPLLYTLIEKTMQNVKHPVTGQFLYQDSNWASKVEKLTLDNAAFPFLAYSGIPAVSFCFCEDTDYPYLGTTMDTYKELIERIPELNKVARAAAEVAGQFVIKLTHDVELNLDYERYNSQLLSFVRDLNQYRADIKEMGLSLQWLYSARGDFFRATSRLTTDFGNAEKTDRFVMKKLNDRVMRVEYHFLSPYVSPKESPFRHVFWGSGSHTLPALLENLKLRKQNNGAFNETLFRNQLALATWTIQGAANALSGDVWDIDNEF

B1: 2/99 VH5/VL4 (antibody, V domains shown)
VH: QSMEETGGGLIQPGGSLRLSCAASGFSLSSYAMSWVRQAPGKGLEWVGYIWSGGSTDYADSVKGRFTISRDNSKNTLYLQMNSLRAEDTAVYYCARRYGTSYPDYGDANGFDPWGPGTLVTVSS
VL: AYQMTQSPSSLSASVGDRVTITCRASQSISSYLSWYQQKPGKAPKLLIYRASTLASGVPSRFSGSGSGTDFTLTISSLQPEDFATYYCQQSYSSSNVDNTFGGGTKVEIK
What is called koff is the first-order rate constant of dissociation. In the case of B1, the koff worked out at 0.00238 s⁻¹.

B2: 2/99 VH9/VL4 (antibody, V domains shown)
VH: QQLLESGGGLVQPGGSLRLSCAASGFTFSSYAMSWVRQAPGKGLEWVGYIWSGGSTDYADSVKGRFTISRDNSKNTLYLQMNSLRAEDTAVYYCAKRYGTSYPDYGDANGFDPWGQGTLVTVSS
VL: AYQMTQSPSSLSASVGDRVTITCRASQSISSYLSWYQQKPGKAPKLLIYRASTLASGVPSRFSGSGSGTDFTLTISSLQPEDFATYYCQQSYSSSNVDNTFGGGTKVEIK
On to B2, for which the koff came out at 0.0027 s⁻¹.

B3: 2/99 VH6/VL5 (antibody, V domains shown)
VH: QQLVETGGGLIQPGGSLRLSCAASGFSLSSYAMSWVRQAPGKGLEWIGYIWSGGSTDYADSVKGRFTISRDNSKNTLYLQMNSLRAEDTAVYYCARRYGTSYPDYGDANGFDPWGQGTLVTVSS
VL: DIQMTQSPSSLSASVGDRVTITCRASQSISSYLSWYQQKPGKAPKLLIYRASTLASGVPSRFSGSGSGTDFTLTISSLQPEDFATYYCQQSYSSSNVDNTFGGGTKVEIK
Turning to B3, the koff amounted to 0.00166 s⁻¹.

B4: 2/99 VH13/VL4 (antibody, V domains shown)
VH: QVQLQESGPGLVKPSETLSLTCTVSGFSLSSYAMSWIRQPPGKGLEWIGYIWSGGSTDYNPSLKSRVTISVDTSKNQVSLKLSSVTAADTAVYYCARRYGTSYPDYGDANGFDPWGQGTLVTVSS
VL: AYQMTQSPSSLSASVGDRVTITCRASQSISSYLSWYQQKPGKAPKLLIYRASTLASGVPSRFSGSGSGTDFTLTISSLQPEDFATYYCQQSYSSSNVDNTFGGGTKVEIK
For the molecule B4, the koff was found to be 0.0013 s⁻¹.

B5: 2/99 VH21/VL4 (antibody, V domains shown)
VH: QSMQESGPGLVKPSQTLSLTCTVSGFSLSSYAMSWIRQHPGKGLEWIGYIWSGGSTDYASWAKSRVTISVDTSKNQVSLKLSSVTAADTAVYYCARRYGTSYPDYGDANGFDPWGQGTLVTVSS
VL: AYQMTQSPSSLSASVGDRVTITCRASQSISSYLSWYQQKPGKAPKLLIYRASTLASGVPSRFSGSGSGTDFTLTISSLQPEDFATYYCQQSYSSSNVDNTFGGGTKVEIK
For the molecule B5, the koff turned out to be 0.00146 s⁻¹.

B6: 2/99 VH11/VL4 (antibody, V domains shown)
VH: QQLLESGGGLVQPGGSLRLSCAASGFSLSSYAMSWVRQAPGKGLEWVGYIWSGGSTDYADSVKGRFTISRDNSKNTLYLQMNSLRAEDTAVYYCARRYGTSYPDYGDANGFDPWGQGTLVTVSS
VL: AYQMTQSPSSLSASVGDRVTITCRASQSISSYLSWYQQKPGKAPKLLIYRASTLASGVPSRFSGSGSGTDFTLTISSLQPEDFATYYCQQSYSSSNVDNTFGGGTKVEIK
With B6, the koff is 0.00388 s⁻¹.

B7: 2/99 VH5/VL5 (antibody, V domains shown)
VH: QSMEETGGGLIQPGGSLRLSCAASGFSLSSYAMSWVRQAPGKGLEWVGYIWSGGSTDYADSVKGRFTISRDNSKNTLYLQMNSLRAEDTAVYYCARRYGTSYPDYGDANGFDPWGPGTLVTVSS
VL: DIQMTQSPSSLSASVGDRVTITCRASQSISSYLSWYQQKPGKAPKLLIYRASTLASGVPSRFSGSGSGTDFTLTISSLQPEDFATYYCQQSYSSSNVDNTFGGGTKVEIK
As for B7, the koff came out at 0.00253 s⁻¹.

B8: 2/99 VH22/VL4 (antibody, V domains shown)
VH: QSMQESGPGLVKPSQTLSLTCTVSGFSLSSYAMSWVRQHPGKGLEWIGYIWSGGSTDYASWAKSRVTISVDTSKNQVSLKLSSVTAADTAVYYCARRYGTSYPDYGDANGFDPWGQGTLVTVSS
VL: AYQMTQSPSSLSASVGDRVTITCRASQSISSYLSWYQQKPGKAPKLLIYRASTLASGVPSRFSGSGSGTDFTLTISSLQPEDFATYYCQQSYSSSNVDNTFGGGTKVEIK
Take B8: the koff came out at 0.00118 s⁻¹.

B9: 2/99 VH1/VL5 (antibody, V domains shown)
VH: VQLVETGGGLIQPGGSLRLSCAASGFSLSSYAMSWVRQAPGKGLEWVGYIWSGGSTDYADSVKGRFTISRDNSKNTLYLQMNSLRAEDTAVYYCARRYGTSYPDYGDANGFDPWGQGTLVTVSS
VL: DIQMTQSPSSLSASVGDRVTITCRASQSISSYLSWYQQKPGKAPKLLIYRASTLASGVPSRFSGSGSGTDFTLTISSLQPEDFATYYCQQSYSSSNVDNTFGGGTKVEIK
For the molecule B9, the koff was 0.00271 s⁻¹.

B10: 2/99 VH23-DANG/VL4 (antibody, V domains shown)
VH: QSMQESGPGLVKPSQTLSLTCTVSGFSLSSYAMSWIRQHPGKGLEWIGYIWSGGSTDYASWAKSRVTISKTSTTVSLKLSSVTAADTAVYYCARRYGTSYPDYGDANGFDPWGQGTLVTVSS
VL: AYQMTQSPSSLSASVGDRVTITCRASQSISSYLSWYQQKPGKAPKLLIYRASTLASGVPSRFSGSGSGTDFTLTISSLQPEDFATYYCQQSYSSSNVDNTFGGGTKVEIK
In the case of B10, the koff amounted to 0.000761 s⁻¹.

B11: 2/99 VH15/VL4 (antibody, V domains shown)
VH: QQLQESGPGLVKPSETLSLTCTVSGFSLSSYAMSWVRQPPGKGLEWIGYIWSGGSTDYNPSLKSRVTISVDTSKNQVSLKLSSVTAADTAVYYCARRYGTSYPDYGDANGFDPWGQGTLVTVSS
VL: AYQMTQSPSSLSASVGDRVTITCRASQSISSYLSWYQQKPGKAPKLLIYRASTLASGVPSRFSGSGSGTDFTLTISSLQPEDFATYYCQQSYSSSNVDNTFGGGTKVEIK
As for B11, the koff came out at 0.00134 s⁻¹.

B12: 2/99 VH20/VL4 (antibody, V domains shown)
VH: QSMQESGPGLVKPSQTLSLTCTVSGFSLSSYAMSWIRQHPGKGLEWIGYIWSGGSTDYAPSLKSRVTISVDTSKNQVSLKLSSVTAADTAVYYCARRYGTSYPDYGDANGFDPWGQGTLVTVSS
VL: AYQMTQSPSSLSASVGDRVTITCRASQSISSYLSWYQQKPGKAPKLLIYRASTLASGVPSRFSGSGSGTDFTLTISSLQPEDFATYYCQQSYSSSNVDNTFGGGTKVEIK
Consider B12, for which the koff was determined as 0.00436 s⁻¹.

B13: 2/99 VH17/VL4 (antibody, V domains shown)
VH: QQLQESGPGLVKPSETLSLTCTVSGFSLSSYAMSWVRQPPGKGLEWIGYIWSGGSTDYNPSLKSRVTISKDTSKNQVSLKLSSVTAADTAVYYCARRYGTSYPDYGDANGFDPWGPGTLVTVSS
VL: AYQMTQSPSSLSASVGDRVTITCRASQSISSYLSWYQQKPGKAPKLLIYRASTLASGVPSRFSGSGSGTDFTLTISSLQPEDFATYYCQQSYSSSNVDNTFGGGTKVEIK
Regarding B13, the koff amounted to 0.000723 s⁻¹.

B14: 2/99 VH18/VL4 (antibody, V domains shown)
VH: QVQLQESGPGLVKPSQTLSLTCTVSGFSLSSYAMSWIRQHPGKGLEWIGYIWSGGSTDYAPSLKSRVTISVDTSKNQFSLKLSSVTAADTAVYYCARRYGTSYPDYGDANGFDPWGQGTLVTVSS
VL: AYQMTQSPSSLSASVGDRVTITCRASQSISSYLSWYQQKPGKAPKLLIYRASTLASGVPSRFSGSGSGTDFTLTISSLQPEDFATYYCQQSYSSSNVDNTFGGGTKVEIK
For the molecule B14, the koff is 0.00335 s⁻¹.

B15: 2/99 VH2/VL5 (antibody, V domains shown)
VH: EVQLVETGGGLIQPGGSLRLSCAASGFSLSSYAMSWVRQAPGKGLEWVGYIWSGGSTDYADSVKGRFTISRDNSKNTLYLQMNSLRAEDTAVYYCARRYGTSYPDYGDANGFDPWGQGTLVTVSS
VL: DIQMTQSPSSLSASVGDRVTITCRASQSISSYLSWYQQKPGKAPKLLIYRASTLASGVPSRFSGSGSGTDFTLTISSLQPEDFATYYCQQSYSSSNVDNTFGGGTKVEIK
B15: the koff was 0.00262 s⁻¹.

B16: 2/99 VH7/VL4 (antibody, V domains shown)
VH: QQLVETGGGLIQPGGSLRLSCAASGFSLSSYAMSWVRQAPGKGLEWIGYIWSGGSTDYASWAKGRFTISRDNSKNTLYLQMNSLRAEDTAVYYCARRYGTSYPDYGDANGFDPWGQGTLVTVSS
VL: AYQMTQSPSSLSASVGDRVTITCRASQSISSYLSWYQQKPGKAPKLLIYRASTLASGVPSRFSGSGSGTDFTLTISSLQPEDFATYYCQQSYSSSNVDNTFGGGTKVEIK
As to B16, the koff came to 0.00125 s⁻¹.

B17: 2/99 VH12/VL4 (antibody, V domains shown)
VH: QVQLQESGPGLVKPSETLSLTCTVSGFSLSSYAMSWIRQPPGKGLEWIGYIWSGGSTDYNPSLKSRVTISVDTSKNQFSLKLSSVTAADTAVYYCARRYGTSYPDYGDANGFDPWGQGTLVTVSS
VL: AYQMTQSPSSLSASVGDRVTITCRASQSISSYLSWYQQKPGKAPKLLIYRASTLASGVPSRFSGSGSGTDFTLTISSLQPEDFATYYCQQSYSSSNVDNTFGGGTKVEIK
As to B17, the koff came to 0.00311 s⁻¹.

B18: 2/99 VH19/VL4 (antibody, V domains shown)
VH: QSMQESGPGLVKPSQTLSLTCTVSGFSLSSYAMSWIRQHPGKGLEWIGYIWSGGSTDYAPSLKSRVTISVDTSKNQFSLKLSSVTAADTAVYYCARRYGTSYPDYGDANGFDPWGQGTLVTVSS
VL: AYQMTQSPSSLSASVGDRVTITCRASQSISSYLSWYQQKPGKAPKLLIYRASTLASGVPSRFSGSGSGTDFTLTISSLQPEDFATYYCQQSYSSSNVDNTFGGGTKVEIK
B18: the koff worked out at 0.001 s⁻¹.

B19: 2/99 VH16/VL4 (antibody, V domains shown)
VH: QQLQESGPGLVKPSETLSLTCTVSGFSLSSYAMSWVRQPPGKGLEWIGYIWSGGSTDYNPSLKSRVTISVDTSKNQVSLKLSSVTAADTAVYYCARRYGTSYPDYGDANGFDPWGPGTLVTVSS
VL: AYQMTQSPSSLSASVGDRVTITCRASQSISSYLSWYQQKPGKAPKLLIYRASTLASGVPSRFSGSGSGTDFTLTISSLQPEDFATYYCQQSYSSSNVDNTFGGGTKVEIK
With B19, the koff was 0.00127 s⁻¹.

B20: 2/99 VH6/VL4 (antibody, V domains shown)
VH: QQLVETGGGLIQPGGSLRLSCAASGFSLSSYAMSWVRQAPGKGLEWIGYIWSGGSTDYADSVKGRFTISRDNSKNTLYLQMNSLRAEDTAVYYCARRYGTSYPDYGDANGFDPWGQGTLVTVSS
VL: AYQMTQSPSSLSASVGDRVTITCRASQSISSYLSWYQQKPGKAPKLLIYRASTLASGVPSRFSGSGSGTDFTLTISSLQPEDFATYYCQQSYSSSNVDNTFGGGTKVEIK
On to B20, for which the koff worked out at 0.00187 s⁻¹.

B21: 2/99 VH8/VL4 (antibody, V domains shown)
VH: QQLVETGGGLIQPGGSLRLSCAASGFSLSSYAMSWVRQAPGKGLEWIGYIWSGGSTDYASWAKGRFTISKTSTTLYLQMNSLRAEDTAVYYCARRYGTSYPDYGDANGFDPWGQGTLVTVSS
VL: AYQMTQSPSSLSASVGDRVTITCRASQSISSYLSWYQQKPGKAPKLLIYRASTLASGVPSRFSGSGSGTDFTLTISSLQPEDFATYYCQQSYSSSNVDNTFGGGTKVEIK
In the case of B21, the koff stood at 0.000788 s⁻¹.
